One experiment deals with T1, BSA (bovine, UniProt P02769 25-607).
T1 construct: also called bovine serum albumin
The experiment can be described thus: ELISA. In a few lines:
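Fab from E. coli TG1 lysates bound to plates coated with human TFPI, or with mouse TFPI for cross-reactivity, with BSA and lysozyme as negative controls. Detection by HRP-anti-human Fab with AmplexRed/H2O2; signal ≥5-fold over background scored positive.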

In experiment [1] the target is T2, human tissue factor pathway inhibitor (TFPI) (human, UniProt P10646 29-304, limits assumed).
T2 sequence (looked up): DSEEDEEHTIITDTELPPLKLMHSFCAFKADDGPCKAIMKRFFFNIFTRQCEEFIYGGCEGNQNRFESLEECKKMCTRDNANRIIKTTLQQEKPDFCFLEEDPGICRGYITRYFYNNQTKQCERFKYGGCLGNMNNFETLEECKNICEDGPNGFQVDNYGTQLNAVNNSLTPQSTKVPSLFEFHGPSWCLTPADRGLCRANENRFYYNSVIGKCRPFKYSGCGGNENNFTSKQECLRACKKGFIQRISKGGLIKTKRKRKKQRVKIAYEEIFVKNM
The experiment in a line: cell-based or functional assay.

Experiment [2] addresses T2, human tissue factor pathway inhibitor …. The experiment in a line: ELISA, Fab on coated TFPI. As to the method: (§1) To select antibody clones that bind to human TFPI, Fab genes of the phage clones from the second and third round of panning were subcloned into a bacterial expression vector and expressed in E. coli strain TG1. The bacterial lysate was added to the wells of the human TFPI-coated Maxisorp plates. After washing, HRP-conjugated goat anti-human Fab was used as a detection antibody and the plates were developed by adding AmplexRed (Invitrogen) with hydrogen peroxide. A signal of at least five-fold higher than the background was considered as positive. The cross reactivity of the anti-human TFPI antibodies to mouse TFPI was determined by a similar mouse TFPI-binding ELISA. The plates were coated with mouse TFPI (R&D System), BSA and lysozyme. The later two antigens were used as negative controls.
(§2) Purified Fab antibodies were used to determine EC₅₀ of anti-TFPI antibodies to human or mouse TFPI. EC₅₀ was assessed in an ELISA, similarly as described above. The results were analyzed using SoftMax. The binding affinity of anti-TFPI antibodies was determined in a Biacore assay. Briefly, the antigen, either human or mouse TFPI, was immobilized on the CM5-chips using the amine coupling kit (GE HealthCare) according to the instructions of the manufacturer. The amount of immobilized TFPI was adjusted to the mass of the antigen to give approximate 300 RU. The antibody Fabs were analyzed in mobile phase and at least five different concentrations (0.1, 0.4, 1.6, 6.4 and 25 nM) of the purified antibodies were used in the Biacore assay. The kinetics and binding affinity were calculated using Biacore T100 Evaluation software.
Background: In an ELISA, binding on a coated surface is turned into a signal by an enzyme label.

Experiment [3] concerns the target T3, mouse tissue factor pathway inhibitor (TFPI) (mouse, UniProt O54819 29-289, limits assumed).
T3 construct: Bought protein; also called mouse TFPI; mTFPI
T3 sequence (looked up): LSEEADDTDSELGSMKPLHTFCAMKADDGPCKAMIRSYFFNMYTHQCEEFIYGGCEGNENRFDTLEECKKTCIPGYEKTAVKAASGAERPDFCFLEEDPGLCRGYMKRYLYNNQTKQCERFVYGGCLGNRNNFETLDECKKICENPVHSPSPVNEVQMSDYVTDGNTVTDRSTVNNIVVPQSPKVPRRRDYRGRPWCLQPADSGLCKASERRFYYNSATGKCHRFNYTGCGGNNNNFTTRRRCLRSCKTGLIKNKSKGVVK
The experiment can be described thus: ELISA, Fab on coated TFPI. As to the method: as §1, §2

The target in experiment [4] is T2, human tissue factor pathway inhibitor …. The experiment in a line: Biacore, TFPI on CM5 chip, Fab in mobile phase. As to the method: as §2
(In general: In SPR one partner is held on a chip, and binding of the other changes the refractive index at the surface.)

In experiment [5] the target is T3, mouse tissue factor pathway inhibitor …. The experiment in a line: Biacore, TFPI on CM5 chip, Fab in mobile phase. As to the method: as §2

The term EC50 denotes the concentration giving half of the maximal effect. A word on the Kd: it is a measure of binding affinity in units of concentration. Read a low Kd as tighter binding.

T1 sequence (P02769 25-607 limits assumed): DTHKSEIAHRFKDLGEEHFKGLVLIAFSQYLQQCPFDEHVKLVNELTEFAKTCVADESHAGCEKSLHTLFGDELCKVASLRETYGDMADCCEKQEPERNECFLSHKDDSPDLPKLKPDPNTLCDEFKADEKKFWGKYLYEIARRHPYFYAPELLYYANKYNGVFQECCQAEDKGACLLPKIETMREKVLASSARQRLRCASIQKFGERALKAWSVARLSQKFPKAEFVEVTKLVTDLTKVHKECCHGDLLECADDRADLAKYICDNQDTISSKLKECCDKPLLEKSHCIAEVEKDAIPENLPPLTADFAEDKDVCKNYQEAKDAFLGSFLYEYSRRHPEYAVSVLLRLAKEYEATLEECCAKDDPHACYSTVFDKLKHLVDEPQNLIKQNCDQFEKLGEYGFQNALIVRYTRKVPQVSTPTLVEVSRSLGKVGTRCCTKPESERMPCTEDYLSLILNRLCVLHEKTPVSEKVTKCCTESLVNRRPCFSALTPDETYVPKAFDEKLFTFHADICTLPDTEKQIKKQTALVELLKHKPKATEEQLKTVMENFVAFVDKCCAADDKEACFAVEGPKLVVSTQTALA

B1: TP-4B7 Fab (Fab, V domains shown)
VH: QVQLQQSGPGLVKPSQTLSLTCAISGDSVSSNSAAWSWIRQSPGRGLEWLGIIYKRSKWYNDYAVSVKSRITINPDTSKNQFSLQLNSVTPEDTAVYYCARWHSDKHWGFDYWGQGTLVTVSS
VL: DIVMTQSPLSLPVTPGEPASISCRSSQSLVFSDGNTYLNWYLQKPGQSPQLLIYKGSNRASGVPDRFSGSGSGTDFTLKISRVEAEDVGVYYCQQYDSYPLTFGQGTKVEIKR
notes: Human Fab from HuCal Gold, expressed in E. coli TG1
B1: the binding result with BSA is recorded as “no binding”. In addition, the “% inhibition of hTFPI activity” value in experiment [1] came out at 100%. Besides, the “dPT in hemoA plasma” value in experiment [1] was 53.9 s. Moreover, the EC50 is 0.74 nM in experiment [2] and 2.64 nM in experiment [3]. Also, the Kd in experiment [4] came out at 15.8 nM; in experiment [5], 51.8 nM.

B2: TP-3A4 Fab (Fab, V domains shown)
VH: QVQLVESGGGLVQPGGSLRLSCAASGFTFSSYWMHWVRQAPGKGLEWVSSISYDSSNTYYADSVKGRFTISRDNSKNTLYLQMNSLRAEDTAVYYCARYGGMDYWGQGTLVTVSS
VL: DIELTQPPSVSVAPGQTARISCSGDNLRDKYASWYQQKPGQAPVLVIYSKSERPSGIPERFSGSNSGNTATLTISGTQAEDEADYYCSSYTLNPNLNYVFGGGTKLTVLG
notes: as for B1
In the case of B2, the binding result with BSA is reported as “no binding”. The “% inhibition of hTFPI activity” value in experiment [1] was found to be 0%. In addition, the “dPT in hemoA plasma” value in experiment [1] was 72.3 s. Besides, the concentration giving a half-maximal response (EC50) came out at 42.8 nM in experiment [2] and 327 nM in experiment [3]. Also, the Kd in experiment [4] was 21.6 nM; in experiment [5] it was 23.7 nM.

B3: TP-3C1 Fab (Fab, V domains shown)
VH: QVQLVESGGGLVQPGGSLRLSCAASGFTFSSYSMHWVRQAPGKGLEWVSGISYSSSFTYYADSVKGRFTISRDNSKNTLYLQMNSLRAEDTAVYYCARALGGGVDYWGQGTLVTVSS
VL: DIALTQPASVSGSPGQSITISCTGTSSDLGGFNTVSWYQQHPGKAPKLMIYSVSSRPSGVSNRFSGSKSGNTASLTISGLQAEDEADYYCQSYDLNNLVFGGGTKLTVLG
notes: Human Fab from HuCal Gold, expressed in E. coli TG1; Shares its VL with TP-2G9 and its VH with TP-3F2
Regarding B3, the binding result in the experiment with BSA is on record as “no binding”. Also, the “% inhibition of hTFPI activity” value in experiment [1] is 0%. The “dPT in hemoA plasma” value in experiment [1] came out at 72.3 s. Moreover, the EC50 in experiment [2] turned out to be 32.8 nM; in experiment [3] it was 108 nM. In addition, the dissociation constant Kd in experiment [4] amounted to 21.6 nM; in experiment [5] it was 33.6 nM.

B4: TP-2G9 Fab (Fab, V domains shown)
VH: QVQLVESGGGLVQPGGSLRLSCAASGFTFNSYAMTWVRQAPGKGLEWVSAIKSDGSNTYYADSVKGRFTISRDNSKNTLYLQMNSLRAEDTAVYYCARNDSGWFDVWGQGTLVTVSS
VL: DIALTQPASVSGSPGQSITISCTGTSSDLGGFNTVSWYQQHPGKAPKLMIYSVSSRPSGVSNRFSGSKSGNTASLTISGLQAEDEADYYCQSYDLNNLVFGGGTKLTVLG
notes: as for B1
As to B4, in the experiment with BSA, the binding result is “no binding”. In addition, the “% inhibition of hTFPI activity” value in experiment [1] turned out to be 0%. For the same molecule, the “dPT in hemoA plasma” value in experiment [1] is 82.7 s. The EC50 in experiment [2] is 10.8 nM; in experiment [3], 194 nM. For the same molecule, the values for the dissociation constant Kd in experiment [4] and in experiment [5] were 48.5 nM and 35.7 nM, respectively.

B5: TP-2C7 Fab (Fab, V domains shown)
VH: QVQLQQSGPGLVKPSQTLSLTCAISGDSVSSNSAAWGWIRQSPGRGLEWLGIIYYRSKWYNHYAVSVKSRITINPDTSKNQFSLQLNSVTPEDTAVYYCARSNWSGYFDYWGQGTLVTVSS
VL: DIQMTQSPSSLSASVGDRVTITCRASQDIRNNLAWYQQKPGKAPKLLIYAASSLQSGVPSRFSGSGSGTDFTLTISSLQPEDFAVYYCQQRNGFPLTFGQGTKVEIKR
notes: as for B1
Consider B5, for which, in the experiment with BSA, the binding result is reported as “no binding”. Besides, the “% inhibition of hTFPI activity” value in experiment [1] was determined as 0%. The “dPT in hemoA plasma” value in experiment [1] was found to be 62.5 s. In addition, the EC50 in experiment [2] and in experiment [3] was 0.6 nM in each case. The dissociation constant (Kd) is 2.01 nM in experiment [4] and 9.33 nM in experiment [5].

Source of the values: US20120269817A1 (Bayer, published 2012).
